Molecular target: T1, Kv2.1 surface clusters (Rattus norvegicus, UniProt P15387)
T1 construct: expressed in transfected cells; host or cells: primary rat cortical neurons (E16-17 Sprague-Dawley), Lipofectamine 2000
T1 sequence (P15387 1-857): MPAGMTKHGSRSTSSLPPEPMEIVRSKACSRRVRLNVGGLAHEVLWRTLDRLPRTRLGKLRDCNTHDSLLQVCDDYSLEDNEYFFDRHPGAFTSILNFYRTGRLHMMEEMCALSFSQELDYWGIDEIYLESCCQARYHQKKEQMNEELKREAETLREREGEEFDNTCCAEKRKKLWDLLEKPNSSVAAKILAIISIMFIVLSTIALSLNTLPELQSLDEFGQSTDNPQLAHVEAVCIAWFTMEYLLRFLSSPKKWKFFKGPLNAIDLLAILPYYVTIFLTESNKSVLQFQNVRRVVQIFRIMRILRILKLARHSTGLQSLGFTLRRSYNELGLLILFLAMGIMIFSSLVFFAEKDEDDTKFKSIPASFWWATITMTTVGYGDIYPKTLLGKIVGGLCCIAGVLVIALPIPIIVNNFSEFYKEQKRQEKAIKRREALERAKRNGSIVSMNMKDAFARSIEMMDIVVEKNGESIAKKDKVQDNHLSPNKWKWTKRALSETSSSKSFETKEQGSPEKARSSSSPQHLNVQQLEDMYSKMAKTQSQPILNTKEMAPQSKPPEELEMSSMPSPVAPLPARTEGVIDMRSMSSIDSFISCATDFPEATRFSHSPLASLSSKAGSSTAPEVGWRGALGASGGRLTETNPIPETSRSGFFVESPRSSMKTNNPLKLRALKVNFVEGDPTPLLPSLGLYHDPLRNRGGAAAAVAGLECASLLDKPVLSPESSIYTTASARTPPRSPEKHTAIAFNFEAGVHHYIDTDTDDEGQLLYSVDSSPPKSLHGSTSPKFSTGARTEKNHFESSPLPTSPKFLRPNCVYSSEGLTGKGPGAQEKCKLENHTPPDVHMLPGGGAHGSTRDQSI
Assay: Kv2.1 surface cluster density in live Kv2.1-GFP-transfected cortical neurons treated with TAT-linked peptides
Type: cell-based
Conditions: 10 μM, two-hour treatment, mean±SEM (FIG. 12B)
Protocol: In vitro experiments utilized primary cortical neuronal cultures prepared from embryonic day 16-17 Sprague-Dawley rats of either sex in a protocol described previously (McCord et al., J Physiol (Lond). 592: 3511-3521, 2014). Timed-pregnant rats (Charles River Laboratories, Wilmington, Mass.) were sacrificed by CO2 inhalation. Embryonic cortices were dissociated with trypsin (0.6 mg/mL) and cells plated in sterile 6-well plates on poly-L-ornithine-coated glass coverslips at a density of 670,000 cells per well. Cytosine arabinoside (1-2 μM) was utilized to inhibit non-neuronal proliferation on day 14 in vitro (DIV); cultures were utilized at 21-25 DIV.
; Invitrogen, Carlsbad, Calif.). […]
To analyze Kv2.1 distribution in live primary cortical neurons, cells were transfected with both a tdTomato construct and a GFP-tagged Kv2.1 construct (O'Connell, et al., J Neurosci. 26: 9609-9618, 2006) and imaged on a Nikon A1+ confocal microscope (Nikon, Tokyo, Japan). […] For live images of transfected neurons, object count parameters were customized to define a Kv2.1 cluster as an area of high intensity GFP fluorescence (compared to background), measuring 0.05 μm^2 or larger (Schulien et al., J Physiol (Lond). 594: 2647-2659, 2016). Kv2.1 cluster density was calculated by normalizing the number of Kv2.1 clusters counted to the somatic area of each neuron (#Kv2.1 clusters/μm^2). […]

## YGRKKRRQRRRDIDDFTD [TAT-DP-2D, TAT-linked peptide containing serine to aspartate mutations]
  mean Kv2.1 surface cluster density: 0.08±0.02 #Kv2.1 clusters/μm^2 of neuronal soma

## YGRKKRRQRRRAIDAFTA [TAT-DP-2A, TAT-linked serine to alanine mutant of DP-2]
  mean Kv2.1 surface cluster density: 0.14±0.02 #Kv2.1 clusters/μm^2 of neuronal soma
